In PMC11238091 one finds Kd data, which are given here for one substance.

The target in test [1] is STMND1-SLD (stathmin-like domain of human STMND1, amino acids 118-276), His6-tagged (human) (UniProt H3BQB6). The test can be described thus: BLI. (In general: BLI is a label-free optical method that tracks binding on a fibre tip over time.)
Test [2] concerns the target S1-STMND1 (human STMND1 lacking the first seven amino acids, amino acids 8-276), His6-tagged (human) (UniProt H3BQB6). The test can be described thus: BLI.

For orientation: Kd means the free concentration of one partner at which half of the binding sites on the other are occupied at equilibrium, for simple one-to-one binding. Low values mean a tighter complex, high ones a looser complex. “Bovine brain tubulin (αβ-tubulin heterodimer) (from UniProt Q6B856 1-445) (complex)”: the values for the Kd in test [1] and in test [2] were 600 nM and 400 nM, respectively.
